We go through 45 molecules from patent US6972319B1, “Pituitary adenylate cyclase activating peptide (PACAP)receptor 3 (R3) agonists and their pharmacological methods of use” (priority 1999, dated 2005).

Substitutions are numbered along the chain they refer to. No end group written: not given here.

The assay has as its target T1, PACAP-R3 (human, UniProt P41587 24-438).
T1 sequence (looked up): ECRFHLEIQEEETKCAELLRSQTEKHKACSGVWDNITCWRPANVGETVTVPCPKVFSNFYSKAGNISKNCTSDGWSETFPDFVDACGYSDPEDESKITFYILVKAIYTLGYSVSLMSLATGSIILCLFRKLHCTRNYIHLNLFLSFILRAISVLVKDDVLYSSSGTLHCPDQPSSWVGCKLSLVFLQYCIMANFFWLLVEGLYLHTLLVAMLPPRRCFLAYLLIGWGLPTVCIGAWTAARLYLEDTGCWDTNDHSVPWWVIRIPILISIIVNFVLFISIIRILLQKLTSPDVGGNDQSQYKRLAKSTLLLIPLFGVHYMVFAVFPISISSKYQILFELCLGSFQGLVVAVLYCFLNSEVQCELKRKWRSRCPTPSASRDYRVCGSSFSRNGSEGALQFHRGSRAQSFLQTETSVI
The assay is described as follows: cell-based or functional assay.

B1: R3P72 (peptide)
peptide: HSDAVFTDQYTRLRKQLAAKKYLNTIKNKRY
Regarding B1, the “R3 EC50” value stood at 0.16 nM and the “R3 Selectivity” value was > 600.

B2: R3P75 (peptide)
peptide: B1 peptide with K20H
For the molecule B2, the “R3 EC50” value was found to be 0.3 nM and the “R3 Selectivity” value was > 500.

B3: R3P89 (peptide)
peptide: HSDAVFTDNYTRLRKQVAVKKYLQSILKK
As to B3, the “R3 EC50” value stood at 0.06 nM and the “R3 Selectivity” value amounted to 15.

B4: R3P60 (peptide)
peptide: HSDAVFTDNYTRLRKQVAAKKYLQSIKK
As to B4, the “R3 EC50” value was 1 nM and the “R3 Selectivity” value came out at 120.

B5: R3P88 (peptide)
peptide: HSDAVFTDNYTRLRKQVAVKKYLQSILKKR
For the molecule B5, the “R3 EC50” value was determined as 0.08 nM and the “R3 Selectivity” value came out at 12.

B6: R3P61 (peptide)
peptide: HSDAVFTDNYTRLRKQIAAKKYLQTIKK
As for B6, the “R3 EC50” value came out at 0.8 nM and the “R3 Selectivity” value came out at 140.

B7: R3P2 (peptide)
peptide: Ac-HSDAVFTENYTKLRKQLAAKKYLNDLKKGGT
modifications: ends and bridges not checked
Consider B7, for which the “R3 EC50” value is 3 nM and the “R3 Selectivity” value was > 300.

B8: R3P39 (peptide)
peptide: HSDGIFTDSYSRYRKQLAVKKYLAAVKK
Take B8: the “R3 EC50” value was found to be 0.5 nM and the “R3 Selectivity” value was found to be 2.

B9: R3P84 (peptide)
peptide: B5 peptide with V19A
Consider B9, for which the “R3 EC50” value came to 0.06 nM and the “R3 Selectivity” value worked out at 40.

B10: R3P78 (peptide)
peptide: B5 peptide with V19A, Q24N, L27K
Regarding B10, the “R3 EC50” value worked out at 1.1 nM and the “R3 Selectivity” value is 230.

B11: R3P6 (peptide)
peptide: HSDGIFTESYSRYRKQMAVKKYLAALKKKRYKQRVKNK
As to B11, the “R3 EC50” value came out at 80 nM and the “R3 Selectivity” value worked out at 3.

B12: R3P80 (peptide)
peptide: B5 peptide with L27K
Turning to B12, the “R3 EC50” value was 0.44 nM.

B13: R3P3 (peptide)
peptide: HSDAVFTENYTKLRKQLAAKKYLNDLKKGGT
In the case of B13, the “R3 EC50” value worked out at 0.75 nM and the “R3 Selectivity” value was 130.

B14: R3P93 (peptide)
peptide: B5 peptide with V19A, K28N
With B14, the “R3 EC50” value was found to be 0.14 nM and the “R3 Selectivity” value amounted to 40.

B15: R3P16 (peptide)
peptide: HSDGIFTDSYSRYRKQMAVKKYLAAVKQGGT-NH2
In the case of B15, the “R3 EC50” value is 10 nM and the “R3 Selectivity” value stood at 1.4.

B16: R3P65 (peptide)
peptide: HSDAVFTDNYTRLRKQMAAKKYLNSIKNKR
Turning to B16, the “R3 EC50” value was determined as 0.6 nM and the “R3 Selectivity” value is 130.

B17: R3P37 (peptide)
peptide: HSDGIFTDSYSRYRKQLAAKKYLADVKKGGT
For the molecule B17, the “R3 EC50” value stood at 4 nM and the “R3 Selectivity” value stood at 18.

B18: R3P17 (peptide)
peptide: HSDGIFTDSYSRYRKQMAVKKYLAAVKKYLAAVRHG-NH2
On to B18, for which the “R3 EC50” value stood at 4 nM and the “R3 Selectivity” value was 2.

B19: R3P77 (peptide)
peptide: B5 peptide with V19A, L27K
Turning to B19, the “R3 EC50” value amounted to 0.4 nM and the “R3 Selectivity” value came to 500.

B20: R3P8 (peptide)
peptide: HSDAVFTDNYTRLRKQMAVKKYLNSIKK-NH2
For the molecule B20, the “R3 EC50” value amounted to 1.4 nM and the “R3 Selectivity” value is 1.5.

B21: R3P81 (peptide)
peptide: HSDAVFTDNYTRLRKQVAVKKYLQSIKKK
With B21, the “R3 EC50” value was determined as 0.5 nM and the “R3 Selectivity” value amounted to 100.

B22: R3P40 (peptide)
peptide: HSDGIFTDSYSRYRKQMAVKKYLAAVKK
B22: the “R3 EC50” value amounted to 0.7 nM and the “R3 Selectivity” value stood at 2.

B23: R3P62 (peptide)
peptide: HSDAVFTDNYTRLRKQVAAKKYLNSIKK
Consider B23, for which the “R3 EC50” value was 1.8 nM and the “R3 Selectivity” value was determined as 100.

B24: R3P85 (peptide)
peptide: HSDAVFTDNYTRLRKQVAAKKYLQSILKK
For the molecule B24, the “R3 EC50” value turned out to be 0.18 nM and the “R3 Selectivity” value is 30.

B25: R3P23 (peptide)
peptide: HSDAVFTDNYTRLRKQLAAKKYLNDILKGGT
Regarding B25, the “R3 EC50” value was found to be 0.43 nM and the “R3 Selectivity” value was determined as 23.

B26: R3P27 (peptide)
peptide: B25 peptide with K28N
As for B26, the “R3 EC50” value was determined as 0.8 nM and the “R3 Selectivity” value amounted to 8.

B27: R3P28 (peptide)
peptide: B25 peptide with A19V
For B27, the “R3 EC50” value came to 7 nM and the “R3 Selectivity” value stood at 1.

B28: R3P5 (peptide)
peptide: HSDAVFTENYTKLRKQLAAKKYLNDLKK
For B28, the “R3 EC50” value worked out at 7 nM and the “R3 Selectivity” value was 30.

B29: R3P7 (peptide)
peptide: HSDAVFTENYTRLRKQMAVKKYLNSLKK-NH2
Consider B29, for which the “R3 EC50” value stood at 4 nM and the “R3 Selectivity” value was 0.5.

B30: R3P86 (peptide)
peptide: HSDAVFTDNYTRLRKQVAAKKYLQSIKNK
Turning to B30, the “R3 EC50” value was determined as 0.8 nM and the “R3 Selectivity” value came out at 110.

B31: R3P66 (peptide)
peptide: HSDAVFTDNYTRLRKQVAAKKYLQSIKNKRY
For B31, the “R3 EC50” value turned out to be 0.4 nM and the “R3 Selectivity” value came to 250.

B32: R3P87 (peptide)
peptide: B31 peptide with A19V, K27L, N28K
Take B32: the “R3 EC50” value was 0.2 nM and the “R3 Selectivity” value is 3.

B33: R3P73 (peptide)
peptide: B31 peptide with V17M, K20H, Q24N
Regarding B33, the “R3 EC50” value came out at 0.3 nM and the “R3 Selectivity” value was 170.

B34: R3P92 (peptide)
peptide: B31 peptide with K27L
With B34, the “R3 EC50” value was determined as 0.02 nM and the “R3 Selectivity” value turned out to be 100.

B35: R3P74 (peptide)
peptide: B31 peptide with V17M, K21H, Q24N
On to B35, for which the “R3 EC50” value is 0.6 nM and the “R3 Selectivity” value came to 150.

B36: R3P70 (peptide)
peptide: B1 peptide with Q9N, L17M
B36: the “R3 EC50” value turned out to be 0.4 nM and the “R3 Selectivity” value was > 250.

B37: R3P67 (peptide)
peptide: B1 peptide with Q9N
With B37, the “R3 EC50” value is 0.3 nM and the “R3 Selectivity” value amounted to 330.

B38: R3P69 (peptide)
peptide: B31 peptide with V17M
Regarding B38, the “R3 EC50” value amounted to 0.5 nM and the “R3 Selectivity” value is 190.

B39: R3P68 (peptide)
peptide: B31 peptide with Q24N
As for B39, the “R3 EC50” value stood at 0.5 nM.

B40: R3P82 (peptide)
peptide: B31 peptide with A19V
Regarding B40, the “R3 EC50” value was 0.4 nM and the “R3 Selectivity” value came out at 23.

B41: R3P83 (peptide)
peptide: B31 peptide with K27L, N28K
For the molecule B41, the “R3 EC50” value is 0.08 nM and the “R3 Selectivity” value came to 60.

B42: R3P79 (peptide)
peptide: B31 peptide with Q24N
Regarding B42, the “R3 EC50” value was found to be 0.5 nM.

B43: R3P71 (peptide)
peptide: B1 peptide with L17M, T25S
Take B43: the “R3 EC50” value worked out at 0.09 nM and the “R3 Selectivity” value came out at 660.

B44: R3P38 (peptide)
peptide: HSDGIFTDSYSRYRKQLAAKKYLADVKK
Take B44: the “R3 EC50” value stood at 2.3 nM and the “R3 Selectivity” value worked out at 7.

B45: R3P9 (peptide)
peptide: HSDAVFTDNYTRLRKQMAVKKYLNSIKKGGT
Take B45: the “R3 EC50” value stood at 2 nM and the “R3 Selectivity” value was 20.
